Test results taken from paper PMC5463365, “Assembly and use of high-density recombinant peptide chips for large-scale ligand screening is a practical alternative to synthetic peptide libraries” (BMC Genomics, 2017).

Tests used:
[1] = target: 5'FAM-labeled Strep-tag II peptide; test: fluorescence polarisation; 20 nM 5'FAM-labeled peptide with rising concentrations of Streptavidin/StrepTactin, triplicates; ES2 buffer (100 mM potassium phosphate pH 7.4, 100 μg/ml bovine γ globulin, 0.02% NaN3); at least 2 h at RT or o/n at 4 °C
[2] = target: 5'FAM-labeled F14.5 peptide; test: as above

Kd [1]: 0.43 µM | Kd [2]: 44.3 µM
Substance: Recombinant StrepTactin, unconjugated
